Assay results as given in patent US20130189759, “MEGANUCLEASES VARIANTS CLEAVING A DNA TARGET SEQUENCE IN THE NANOG GENE AND USES THEREOF” (Cellectis, published 2013).
Where a chain is given by its changes, count along the chain named.

Experiments:
Assay in all cases: cell_activity; 293H endogenous locus, 5 ug plasmid
Conditions in all cases: tags: RM2 linker between monomers
[1] = biological target: T1, SCOH-NANOG2 pCLS4415 (single-chain I-CreI variant)
T1 chain: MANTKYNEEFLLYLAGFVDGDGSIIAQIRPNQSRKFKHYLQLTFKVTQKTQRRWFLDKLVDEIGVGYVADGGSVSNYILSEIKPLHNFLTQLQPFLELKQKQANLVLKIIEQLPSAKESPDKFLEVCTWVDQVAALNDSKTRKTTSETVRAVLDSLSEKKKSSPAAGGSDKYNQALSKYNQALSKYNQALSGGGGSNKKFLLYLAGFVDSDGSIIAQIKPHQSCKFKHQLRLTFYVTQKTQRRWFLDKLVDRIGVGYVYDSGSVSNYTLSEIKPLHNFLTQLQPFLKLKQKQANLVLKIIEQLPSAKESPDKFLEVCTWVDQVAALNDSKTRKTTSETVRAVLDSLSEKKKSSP
Experimental: (§1) Single Chain I-CreI variants targeting respectively NANOG2 and NANOG4 targets were cloned in the pCLS1853 plasmid. The resulting plasmids, respectively pCLS4415, pCLS4416, pCLS4417, pCLS4418, pCLS4421 and pCLS4422 were used for this experiment. The day of […], cells from the human embryonic kidney cell line, 293-H (Invitrogen) were seeded in a 10 cm dish at density of 1×10⁶ cells/dish. The following day, cells were transfected with 10 μg of total DNA corresponding to the combination of an empty plasmid with a meganuclease-expressing plasmid using lipofectamine (Invitrogen). Plasmid ratio (empty/meganuclease plasmid) used were 10 μg/0 μg, 9 μg/1 μg, 5 μg/5 μg 0 μg/10 μg. 48 hours after transfection, cells were collected and diluted (dilution 1/20) in fresh culture medium. After 7 days of culture, cells were collected and genomic DNA extracted. 300 ng of genomic DNA were used to amplify the endogenous locus surrounding the meganuclease cleavage site by PCR amplification.
(§2) PCR amplification was performed to obtain a fragment flanked by specific adaptator sequences (SEQ ID NO 63; 5′-[…]-3′ and SEQ ID NO 64; 5′-[…]-3′) provided by the company offering sequencing service (GATC Biotech AG, Germany) on the 454 sequencing system (454 Life Sciences). An average of 18,000 sequences was obtained from pools of 2 amplicons (500 ng each). After sequencing, different samples were identified based on barcode sequences introduced in the first of the above adaptators.
(§3) Sequences were then analyzed for the presence of insertions or deletions events (InDel) in the cleavage site of each NANOG target.

[2] = biological target: T2, SCOH-NANOG2 pCLS4416 (single-chain I-CreI variant)
T2 chain: T1 chain with E81K
Experimental: as §1, §2, §3

[3] = biological target: T3, SCOH-NANOG2 pCLS4418 (single-chain I-CreI variant)
T3 chain: T1 chain with F55I, V65A, T148A
Experimental: as §1, §2, §3

B1: NANOG2 (NANOG2.1) target (dsDNA)
DNA 1: CCAACATCCTGAACCTCAGCTACA
DNA 2: TGTAGCTGAGGTTCAGGATGTTGG
Binder B1 has an activity [1] of 0.276 % InDel, an activity [2] of 0.222 % InDel and an activity [3] of 0.317 % InDel.
